The values below are quoted from earlier work in paper PMC5342242.

For orientation: Kd means a measure of binding affinity in units of concentration.

In series [1] the target is DNA polymerase III α subunit (Escherichia coli) (UniProt P10443). In words: tryptophan fluorescence.
For series [2], the target named is DNA polymerase III α subunit 1-280 (Escherichia coli) (UniProt P10443). In words: tryptophan fluorescence.
Series [3] addresses DNA polymerase III α subunit 917-1160 (Escherichia coli) (UniProt P10443). In words: tryptophan fluorescence.
For series [4], the target named is DNA pol III alpha 917-1160 (Escherichia coli) (UniProt P10443).
The target of series [5] is DNA pol III alpha 1-280 (Escherichia coli) (UniProt P10443).
The target in series [6] is DNA pol III alpha (Escherichia coli) (UniProt P10443).
Series [7] deals with DNA pol III alpha 917-1160 (Escherichia coli) (UniProt P10443). The source holds these as a separate data set.

Where two headings read alike, the source gives them in different places.

Sequence of DNA polymerase III α subunit 1-280 (Escherichia coli) (P10443 1-280): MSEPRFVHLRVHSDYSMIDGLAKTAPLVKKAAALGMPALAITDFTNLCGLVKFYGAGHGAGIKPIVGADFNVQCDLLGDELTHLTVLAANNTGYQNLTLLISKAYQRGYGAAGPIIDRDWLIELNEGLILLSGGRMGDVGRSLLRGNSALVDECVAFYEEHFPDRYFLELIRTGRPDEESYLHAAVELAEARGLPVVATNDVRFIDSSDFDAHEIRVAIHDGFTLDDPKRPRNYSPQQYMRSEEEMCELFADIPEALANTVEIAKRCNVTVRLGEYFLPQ
Sequence of UmuD (P0AG11 25-139): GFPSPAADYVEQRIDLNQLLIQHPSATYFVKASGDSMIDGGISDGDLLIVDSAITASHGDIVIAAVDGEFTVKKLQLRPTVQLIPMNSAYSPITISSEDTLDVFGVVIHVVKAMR
Sequence of UmuD' (P0AG11 25-139): as above
Sequence of DNA polymerase III α subunit (Escherichia coli) (P10443 whole entry): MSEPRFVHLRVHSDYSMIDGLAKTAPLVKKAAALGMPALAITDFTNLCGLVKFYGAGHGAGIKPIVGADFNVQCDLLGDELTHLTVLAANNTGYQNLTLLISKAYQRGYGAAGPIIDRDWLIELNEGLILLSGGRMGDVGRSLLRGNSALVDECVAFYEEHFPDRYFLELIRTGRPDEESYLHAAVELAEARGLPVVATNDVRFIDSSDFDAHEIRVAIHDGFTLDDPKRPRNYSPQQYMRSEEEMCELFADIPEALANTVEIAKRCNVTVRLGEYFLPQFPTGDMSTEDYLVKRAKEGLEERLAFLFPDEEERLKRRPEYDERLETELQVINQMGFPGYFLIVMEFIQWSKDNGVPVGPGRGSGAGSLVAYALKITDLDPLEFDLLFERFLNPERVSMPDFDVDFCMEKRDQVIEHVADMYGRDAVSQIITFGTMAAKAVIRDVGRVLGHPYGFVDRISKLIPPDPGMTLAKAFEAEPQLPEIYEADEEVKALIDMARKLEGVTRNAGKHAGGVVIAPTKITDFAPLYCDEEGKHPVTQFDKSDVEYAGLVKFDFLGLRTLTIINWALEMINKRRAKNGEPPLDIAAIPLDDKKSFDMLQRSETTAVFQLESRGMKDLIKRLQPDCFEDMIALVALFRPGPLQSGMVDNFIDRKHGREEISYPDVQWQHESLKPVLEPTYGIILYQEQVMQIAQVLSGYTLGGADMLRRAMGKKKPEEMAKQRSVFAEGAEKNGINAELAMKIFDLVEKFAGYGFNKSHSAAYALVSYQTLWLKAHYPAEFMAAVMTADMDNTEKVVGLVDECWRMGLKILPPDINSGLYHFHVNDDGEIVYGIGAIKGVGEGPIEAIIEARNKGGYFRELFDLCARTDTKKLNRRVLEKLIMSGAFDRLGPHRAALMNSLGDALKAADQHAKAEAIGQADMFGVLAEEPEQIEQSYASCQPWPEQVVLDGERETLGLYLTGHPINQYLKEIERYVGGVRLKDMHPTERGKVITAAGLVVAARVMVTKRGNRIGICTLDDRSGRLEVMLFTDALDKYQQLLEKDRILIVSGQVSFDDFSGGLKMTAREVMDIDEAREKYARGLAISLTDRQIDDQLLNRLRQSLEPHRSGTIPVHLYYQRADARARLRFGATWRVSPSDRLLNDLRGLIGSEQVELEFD
Sequence of DNA polymerase III α subunit 917-1160 (Escherichia coli) (P10443 917-1160): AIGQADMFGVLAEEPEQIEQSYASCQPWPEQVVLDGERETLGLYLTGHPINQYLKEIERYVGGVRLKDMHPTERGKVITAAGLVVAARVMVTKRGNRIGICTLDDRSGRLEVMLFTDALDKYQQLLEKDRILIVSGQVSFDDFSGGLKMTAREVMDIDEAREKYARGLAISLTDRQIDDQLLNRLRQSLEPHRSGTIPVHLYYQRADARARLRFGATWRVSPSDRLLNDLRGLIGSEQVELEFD
Sequence of DNA pol III alpha 917-1160 (Escherichia coli) (P10443 917-1160): as above
Sequence of DNA pol III alpha 1-280 (Escherichia coli) (P10443 1-280): as the sequence (P10443 1-280) above
Sequence of DNA pol III alpha (Escherichia coli) (P10443 whole entry): as the sequence (P10443 whole entry) above

On to UmuD 3A (from UniProt P0AG11), for which the figures for the Kd in series [1], in series [2] and in series [3] were 8.7 µM, 9.3 µM and 3.4 µM, respectively.
With UmuD (from UniProt P0AG11), the dissociation constant Kd in series [4] is 0.7 µM; in series [1], 1.1 µM; in series [2], 7.3 µM; in series [3], 13.9 µM.
In the case of UmuD S60A (from UniProt P0AG11), the dissociation constant (Kd) was 10.6 µM in series [1], 10.3 µM in series [2] and 0.7 µM in series [3].
For UmuD' (from UniProt P0AG11), the Kd is 8.6 µM in series [5], 10.9 µM in series [6] and 3.8 µM in series [7].
